Reference: publication PMC10696396, “HilE represses the activity of the Salmonella virulence regulator HilD via a mechanism distinct from that of intestinal long-chain fatty acids” (The Journal of Biological Chemistry, 2023)

Key:
[1] = biological target: EYFP-HilD (Salmonella enterica) (UniProt P0CL08); assay: MST; HilE titrated against 50 nM EYFP-HilD; 25 °C, 0.05% Pluronic F-127, MST on-time 1.5 s
[2] = biological target: HilD (full-length, unfused) (Salmonella enterica) (UniProt P0CL08); assay: SEC-MALS; Superdex 75 Increase 10/300 GL, 50 mM NaH2PO4 pH 7.0, 200 mM NaCl, 0.5 ml/min; protein concentrations of 100 μM (Fig. 4, D and E)
[3] = biological target: EYFP-HilD (Salmonella enterica) (UniProt P0CL08); assay: MST; HilE titrated against EYFP-HilD preincubated with 1% DMSO; MST on-time 1.5 s, 25 °C

**Q.** HilE (natural protein) was tested. Which Kd [1] did it give?
**A.** The Kd was 1.82 µM.

**Q.** What about the stoichiometry N [2] of the same substance?
**A.** Its stoichiometry N is 1.

**Q.** What about the Kd [3] of the same substance?
**A.** The Kd was 1.63 µM.
